Ends that are not written are not given here. * marks the point of attachment. Pentanoyl = CCCCC(=O)*
B1: Compound 131 (peptide)
peptide: WNLVRIGLLR
modifications: also: further groups not given here
notes: Structure printed only as a drawing
B2: Compound 126 (peptide)
peptide: WNLVRIGLLR
modifications: also: further groups not given here
notes: as for B1
B3: Compound 129 (peptide)
peptide: WNLVRIGLLR
modifications: also: further groups not given here
notes: as for B1
B4: Compound 133 (peptide)
peptide: WNLVRIGLLR
modifications: also: further groups not given here
notes: as for B1
B5: Compound 132 (peptide)
peptide: WNLVRIGLLR
modifications: also: further groups not given here
notes: as for B1
B6: Compound 123 (peptide)
peptide: {n‑PrC(O)}-WNLVRIGLLR-NH2
B7: Compound 180 (peptide)
peptide: Pentanoyl-WNLVRIGLAR-NH2
SMILES: CCCCC(=O)N[C@@H](Cc1c[nH]c2ccccc12)C(=O)N[C@@H](CC(N)=O)C(=O)N[C@@H](CC(C)C)C(=O)N[C@H](C(=O)N[C@@H](CCCNC(=N)N)C(=O)N[C@H](C(=O)NCC(=O)N[C@@H](CC(C)C)C(=O)N[C@@H](C)C(=O)N[C@@H](CCCNC(=N)N)C(N)=O)[C@@H](C)CC)C(C)C
B8: Compound 161 (peptide)
peptide: WNLVRIGLTR
modifications: also: further groups not given here
notes: as for B1
B9: Compound 179 (peptide)
peptide: Pentanoyl-WNLVRIGLGR-NH2
SMILES: CCCCC(=O)N[C@@H](Cc1c[nH]c2ccccc12)C(=O)N[C@@H](CC(N)=O)C(=O)N[C@@H](CC(C)C)C(=O)N[C@H](C(=O)N[C@@H](CCCNC(=N)N)C(=O)N[C@H](C(=O)NCC(=O)N[C@@H](CC(C)C)C(=O)NCC(=O)N[C@@H](CCCNC(=N)N)C(N)=O)[C@@H](C)CC)C(C)C
B10: Compound 159 (peptide)
peptide: Pentanoyl-WNLKRIGLLR-NH2
SMILES: CCCCC(=O)N[C@@H](Cc1c[nH]c2ccccc12)C(=O)N[C@@H](CC(N)=O)C(=O)N[C@@H](CC(C)C)C(=O)N[C@@H](CCCCN)C(=O)N[C@@H](CCCNC(=N)N)C(=O)N[C@H](C(=O)NCC(=O)N[C@@H](CC(C)C)C(=O)N[C@@H](CC(C)C)C(=O)N[C@@H](CCCNC(=N)N)C(N)=O)[C@@H](C)CC
B11: Compound 171 (peptide)
peptide: WNLVRIGLTR
modifications: also: further groups not given here
notes: as for B1
B12: Compound 173 (peptide)
peptide: WNLVRIGLTR
modifications: also: further groups not given here
notes: as for B1
B13: Compound 166 (peptide)
peptide: WNLVRIGLTR
modifications: also: further groups not given here
notes: as for B1
B14: Compound 189 (peptide)
peptide: WNLVRIGLTR
modifications: also: further groups not given here
notes: as for B1
B15: Compound 188 (peptide)
peptide: WNLVRIGLTR
modifications: also: further groups not given here
notes: as for B1
B16: Compound 184 (peptide)
peptide: WNLVRIGTLR
modifications: also: further groups not given here
notes: as for B1
B17: Compound 165 (peptide)
peptide: WNLVRIGLTR
modifications: also: further groups not given here
notes: as for B1
B18: Compound 172 (peptide)
peptide: WNLVRIGLTR
modifications: also: further groups not given here
notes: as for B1
B19: Compound 176 (peptide)
peptide: Pentanoyl-WNLVRIGLTR
B20: Compound 181 (peptide)
peptide: Pentanoyl-WNLVRIGLSR-NH2
SMILES: CCCCC(=O)N[C@@H](Cc1c[nH]c2ccccc12)C(=O)N[C@@H](CC(N)=O)C(=O)N[C@@H](CC(C)C)C(=O)N[C@H](C(=O)N[C@@H](CCCNC(=N)N)C(=O)N[C@H](C(=O)NCC(=O)N[C@@H](CC(C)C)C(=O)N[C@@H](CO)C(=O)N[C@@H](CCCNC(=N)N)C(N)=O)[C@@H](C)CC)C(C)C
B21: Compound 178 (peptide)
peptide: Pentanoyl-WNLVRIGLDR-NH2
SMILES: CCCCC(=O)N[C@@H](Cc1c[nH]c2ccccc12)C(=O)N[C@@H](CC(N)=O)C(=O)N[C@@H](CC(C)C)C(=O)N[C@H](C(=O)N[C@@H](CCCNC(=N)N)C(=O)N[C@H](C(=O)NCC(=O)N[C@@H](CC(C)C)C(=O)N[C@@H](CC(=O)O)C(=O)N[C@@H](CCCNC(=N)N)C(N)=O)[C@@H](C)CC)C(C)C
B22: Compound 182 (peptide)
peptide: WNLVRIGTLR
modifications: also: further groups not given here
notes: as for B1
B23: Compound 183 (peptide)
peptide: WNLVRIGTLR
modifications: also: further groups not given here
notes: as for B1
B24: Compound 169 (peptide)
peptide: WNLVRIGLTR
modifications: also: further groups not given here
notes: as for B1
B25: Compound 190 (peptide)
peptide: WNLVRIGLTR
modifications: also: further groups not given here
notes: as for B1
B26: Compound 177 (peptide)
peptide: Pentanoyl-WNLVRIGLER-NH2
SMILES: CCCCC(=O)N[C@@H](Cc1c[nH]c2ccccc12)C(=O)N[C@@H](CC(N)=O)C(=O)N[C@@H](CC(C)C)C(=O)N[C@H](C(=O)N[C@@H](CCCNC(=N)N)C(=O)N[C@H](C(=O)NCC(=O)N[C@@H](CC(C)C)C(=O)N[C@@H](CCC(=O)O)C(=O)N[C@@H](CCCNC(=N)N)C(N)=O)[C@@H](C)CC)C(C)C
B27: Compound 185 (peptide)
peptide: WNLVRIGTLR
modifications: also: further groups not given here
notes: as for B1
B28: Compound 167 (peptide)
peptide: WNLVRIGLTR
modifications: also: further groups not given here
notes: as for B1
B29: Compound 170 (peptide)
peptide: WNLVRIGLTR
modifications: also: further groups not given here
notes: as for B1
B30: Compound 164 (peptide)
peptide: WNLVRIGLTR
modifications: also: further groups not given here
notes: as for B1
B31: Compound 162 (peptide)
peptide: WNLVRIGLTR
modifications: also: further groups not given here
notes: as for B1
B32: Compound 168 (peptide)
peptide: WNLVRIGLTR
modifications: also: further groups not given here
notes: as for B1
B33: Compound 163 (peptide)
peptide: WNLVRIGLTR
modifications: also: further groups not given here
notes: as for B1
B34: Compound 128 (peptide)
peptide: WNLVRIGLLR
modifications: also: further groups not given here
notes: as for B1
B35: Compound 130 (peptide)
peptide: WNLVRIGLLR
modifications: also: further groups not given here
notes: as for B1
B36: Compound 124 (peptide)
peptide: Ac-GLMPWNLVRIGLLR-NH2
B37: Compound 125 (peptide)
peptide: Ac-GGMPWNLVRIGLLR-NH2
B38: Compound 122 (peptide)
peptide: Ac-SGDLMPWNLVRIGLLR-NH2
B39: Compound 127 (peptide)
peptide: WNLVRIGLLR
modifications: also: further groups not given here
notes: as for B1

biological target: T1, His-tagged PCSK9Δhelix (human, UniProt Q8NBP7 31-152; Q8NBP7 168-692); experiment: TR-FRET competition; His-PCSK9Δhelix, competitor Ab20
T1 construct: Construct M1-Q692 with engineered TEV site, cut by TEV protease; new N-terminus of the catalytic domain is S-A168; also called His-PCSK9Δhelix
T1 sequence (Q8NBP7 31-152, stated change not applied, chain 1 of 2): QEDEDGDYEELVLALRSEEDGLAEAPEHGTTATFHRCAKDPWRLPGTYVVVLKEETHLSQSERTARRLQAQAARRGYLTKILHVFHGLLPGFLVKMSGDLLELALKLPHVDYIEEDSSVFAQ
T1 sequence (Q8NBP7 other isoform, or with tags, fused parts or gaps mutant, chain 2 of 2): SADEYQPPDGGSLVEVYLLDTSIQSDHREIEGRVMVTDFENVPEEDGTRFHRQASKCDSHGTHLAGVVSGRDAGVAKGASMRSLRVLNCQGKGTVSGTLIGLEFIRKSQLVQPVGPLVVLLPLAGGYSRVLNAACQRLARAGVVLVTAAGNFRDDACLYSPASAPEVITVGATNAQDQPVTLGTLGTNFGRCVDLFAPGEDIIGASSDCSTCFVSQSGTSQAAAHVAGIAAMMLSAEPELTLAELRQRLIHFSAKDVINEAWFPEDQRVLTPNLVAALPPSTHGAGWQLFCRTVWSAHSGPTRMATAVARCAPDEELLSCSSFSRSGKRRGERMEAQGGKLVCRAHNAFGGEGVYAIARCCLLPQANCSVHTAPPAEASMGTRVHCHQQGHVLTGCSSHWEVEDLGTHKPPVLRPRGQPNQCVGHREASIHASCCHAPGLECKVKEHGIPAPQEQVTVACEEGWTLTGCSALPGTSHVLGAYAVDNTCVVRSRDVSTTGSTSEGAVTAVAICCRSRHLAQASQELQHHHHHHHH
Protocol: (§1) Signal generation in the PCSK9 binding assays was dependent upon the binding interaction to bring into close proximity the His-tag on the PCSK9 and the Fc-tag on the ligand. Anti-His-APC was bound to the His-tag, and anti-Fc-europium was bound to the Fc-tag.
(§2) Compounds were solubilized and dilutions were prepared in DMSO. […] The plate was centrifuged to mix the well contents and allowed to incubate for 30 min. […] The normalized TR-FRET ratios were plotted as a function of the compound concentrations, and the IC₅₀ values were determined using a 4-parameter logistic regression.

Binder | IC50
B1 | 6.7 µM
B2 | 19 µM
B3 | 23 µM
B4 | 17 µM
B5 | 9 µM
B6 | 18 µM
B7 | 12 µM
B8 | 5 µM
B9 | 11 µM
B10 | 6.6 µM
B11 | 7.7 µM
B12 | 9.8 µM
B13 | 5.9 µM
B14 | 12 µM
B15 | 7.6 µM
B16 | 12 µM
B17 | 18 µM
B18 | 8.5 µM
B19 | 18 µM
B20 | 8.9 µM

Binder | IC50
B21 | 18 µM
B22 | 4 µM
B23 | 2.5 µM
B24 | 6.8 µM
B25 | 7 µM
B26 | 35 µM
B27 | 0.39 µM
B28 | 43 µM
B29 | 3.1 µM
B30 | 12 µM
B31 | 37 µM
B32 | 7.8 µM
B33 | 37 µM
B34 | 7.5 µM
B35 | 8.6 µM
B36 | 3.9 µM
B37 | 7 µM
B38 | 5.6 µM
B39 | 29 µM

biological target: T2, His-tagged, full-length PCSK9 (human, UniProt Q8NBP7 31-692); experiment: TR-FRET competition; His-PCSK9, competitor EGF(A)-Fc
T2 construct: The secreted protein is autocleaved into a prodomain and a catalytic/Cys-rich chain that starts at S153; also called His-PCSK9
T2 sequence (Q8NBP7 other isoform, or with tags, fused parts or gaps limits assumed): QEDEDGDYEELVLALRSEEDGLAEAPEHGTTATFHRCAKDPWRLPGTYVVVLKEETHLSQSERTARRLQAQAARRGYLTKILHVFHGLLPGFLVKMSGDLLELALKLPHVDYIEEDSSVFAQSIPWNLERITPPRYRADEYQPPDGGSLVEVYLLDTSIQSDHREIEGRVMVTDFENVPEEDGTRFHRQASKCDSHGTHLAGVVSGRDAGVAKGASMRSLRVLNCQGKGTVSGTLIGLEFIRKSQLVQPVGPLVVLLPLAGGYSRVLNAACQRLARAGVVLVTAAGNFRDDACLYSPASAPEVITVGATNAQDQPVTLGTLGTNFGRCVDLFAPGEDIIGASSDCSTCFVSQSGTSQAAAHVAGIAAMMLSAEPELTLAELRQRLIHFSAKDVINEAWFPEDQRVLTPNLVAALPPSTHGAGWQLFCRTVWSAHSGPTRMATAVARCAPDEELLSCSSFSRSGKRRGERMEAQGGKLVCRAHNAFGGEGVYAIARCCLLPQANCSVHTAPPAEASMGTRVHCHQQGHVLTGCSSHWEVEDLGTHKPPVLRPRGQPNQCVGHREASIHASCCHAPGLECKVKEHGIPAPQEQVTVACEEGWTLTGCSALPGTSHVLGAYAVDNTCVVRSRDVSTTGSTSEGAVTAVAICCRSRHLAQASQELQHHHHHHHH
Protocol: as §1, §2

Binder | IC50
B1 | ≥ 50 µM
B2 | ≥ 50 µM
B3 | ≥ 50 µM
B4 | ≥ 50 µM
B5 | ≥ 50 µM
B6 | ≥ 50 µM
B7 | ≥ 50 µM
B8 | ≥ 50 µM
B9 | ≥ 50 µM
B10 | ≥ 50 µM
B11 | ≥ 50 µM
B12 | ≥ 50 µM
B13 | ≥ 50 µM
B14 | 38 µM
B15 | 22 µM
B16 | 19 µM
B17 | ≥ 50 µM
B18 | ≥ 50 µM
B19 | ≥ 50 µM

Binder | IC50
B20 | ≥ 50 µM
B21 | ≥ 50 µM
B22 | 14 µM
B23 | 18 µM
B24 | ≥ 50 µM
B25 | 30 µM
B26 | ≥ 50 µM
B27 | 5.7 µM
B28 | ≥ 50 µM
B29 | ≥ 50 µM
B30 | ≥ 50 µM
B31 | ≥ 50 µM
B32 | ≥ 50 µM
B33 | ≥ 50 µM
B34 | ≥ 50 µM
B35 | ≥ 50 µM
B36 | ≥ 50 µM
B37 | ≥ 50 µM
B39 | ≥ 50 µM
